Reference: US20170298146A1 (MODIQUEST B V, published 2017)
Non-standard residues stand in square brackets, D forms with d. No end group written: not given here. Cit = NC(=O)NCCC[C@H](N)C(=O)O

Legend:
[1] = molecular target: T1, CFC-1; experiment: ELISA, 0.0032 ug/well
T1 construct: Positive control for anti-citrulline reactivity; also called cfc1 XG
Procedure: (§1) Deiminated, as well as non-deiminated histones, were immobilized on 96-well ELISA plates (0.3 μg/well). CFC-1 and CFC-0 were coated at the same concentration and served as positive and negative controls, respectively, for specific anti-citrulline reactivity and as coating controls. Non-coated wells were used to test for aspecific binding of the antibodies. […] Detection of bound anti-citrulline antibodies was performed by incubating the wells with rabbit-anti-human-HRP (1:2000) for one hour at RT followed by incubation with TMB substrate. The resulting OD (y-axis) is a measure for antibody binding. H1=recombinant histone 1; H1/p2=huPAD2 recombinant histone 1; H1/p4=huPAD4 recombinant histone 1 and so forth (x-axis).

[2] = molecular target: T2, huPAD2 deiminated human recombinant histone H2A (human); experiment: ELISA, 0.0032 ug/well
T2 construct: also called H2A/p2
Procedure: as §1

[3] = molecular target: T3, huPAD4 deiminated human recombinant histone H2B (human); experiment: ELISA, 10 ug/well
T3 construct: also called H2B/p4
Procedure: as §1, with “CFC-1” for “Deiminated, as well as non-deiminated histones, were immobilized on 96-well ELISA plates (0.3 μg/well). CFC-1”

[4] = molecular target: T1, CFC-1; experiment: ELISA, 10 ug/well
Procedure: as §1, with “CFC-1” for “Deiminated, as well as non-deiminated histones, were immobilized on 96-well ELISA plates (0.3 μg/well). CFC-1”

[5] = molecular target: T4, human recombinant histone H2A (human); experiment: ELISA, 10 ug/well
T4 construct: Non-deiminated
Procedure: as §1, with “CFC-1” for “Deiminated, as well as non-deiminated histones, were immobilized on 96-well ELISA plates (0.3 μg/well). CFC-1”

[6] = molecular target: T5, huPAD4 deiminated human recombinant histone H2A (human); experiment: ELISA, 10 ug/well
T5 construct: also called H2A/p4; huPAD4 deiminated histone 2A
Procedure: as §1, with “CFC-1” for “Deiminated, as well as non-deiminated histones, were immobilized on 96-well ELISA plates (0.3 μg/well). CFC-1”

[7] = molecular target: T6, huPAD2 deiminated human recombinant histone H3 (human); experiment: ELISA, 10 ug/well
T6 construct: also called H3/p2
Procedure: as §1, with “CFC-1” for “Deiminated, as well as non-deiminated histones, were immobilized on 96-well ELISA plates (0.3 μg/well). CFC-1”

[8] = molecular target: T7, human recombinant histone H2B (human); experiment: ELISA, 10 ug/well
T7 construct: Non-deiminated
Procedure: as §1, with “CFC-1” for “Deiminated, as well as non-deiminated histones, were immobilized on 96-well ELISA plates (0.3 μg/well). CFC-1”

[9] = molecular target: human recombinant histone H4 (human, UniProt P62805 2-103); experiment: ELISA, 10 ug/well
Procedure: as §1, with “CFC-1” for “Deiminated, as well as non-deiminated histones, were immobilized on 96-well ELISA plates (0.3 μg/well). CFC-1”

[10] = molecular target: T2, huPAD2 deiminated human recombinant …; experiment: ELISA, 10 ug/well
Procedure: as §1, with “CFC-1” for “Deiminated, as well as non-deiminated histones, were immobilized on 96-well ELISA plates (0.3 μg/well). CFC-1”

[11] = molecular target: T8, huPAD2 deiminated human recombinant histone H2B (human); experiment: ELISA, 10 ug/well
T8 construct: also called H2B/p2
Procedure: as §1, with “CFC-1” for “Deiminated, as well as non-deiminated histones, were immobilized on 96-well ELISA plates (0.3 μg/well). CFC-1”

[12] = molecular target: T9, huPAD4 deiminated human recombinant histone H3 (human); experiment: ELISA, 10 ug/well
T9 construct: also called H3/p4
Procedure: as §1, with “CFC-1” for “Deiminated, as well as non-deiminated histones, were immobilized on 96-well ELISA plates (0.3 μg/well). CFC-1”

[13] = molecular target: T10, Histone 2A citrulline-containing peptide 7 (human, also: biotin label); experiment: peptide ELISA, 0.00064 ug/well
T10 peptide: GNYSE[Cit]VGAGAP
Procedure: (§2) Biotin and citrulline-containing peptides derived from histone 2A were immobilized on NEUTRAVIDIN®-coated 96-well ELISA plates (0.3 μg/well). CFC-1 and CFC-0 were coated at the same concentration and served as positive and negative controls respectively for specific anti-citrulline reactivity and as coating controls. Non-coated wells were used to test for aspecific binding of the antibodies. […] Detection of bound anti-citrulline antibodies was performed by incubating the wells with rabbit-anti-human-HRP (1:2000) for one hour at RT followed by incubation with TMB substrate. The resulting OD (y-axis) is a measure for antibody binding.
(§3) Ninety-six-well ELISA plates were coated with NEUTRAVIDIN® (0.1 μg/well) by overnight incubation at 4° C. Wells were washed five times with PBS-TWEEN®-20 (PBS-T) and blocked by a one-hour incubation with PBS-T+1% Bovine serum albumin (BSA) at room temperature (RT). After five more washes with PBS-T, wells were incubated for one hour at RT with histone-derived citrulline and biotin-containing peptides (0.3 μg/well). […] Wells were washed five times with PBS-T and incubated with rabbit-anti-human-HRP (1:2000) for one hour at RT followed by five washes with PBS-T and three wash steps with PBS. Wells were incubated for five minutes with TMB substrate before stopping the reaction with 2 M H₂SO₄. Optical density was measured by 450 nm and is a measure for the affinity of the antibodies used.

[14] = molecular target: T1, CFC-1; experiment: peptide ELISA, 2 ug/well
Procedure: as §2, §3

[15] = molecular target: T11, Histone 2A citrulline-containing peptide 5 (human, also: biotin label); experiment: peptide ELISA, 2 ug/well
T11 peptide: VGRVH[Cit]LLRKGN
Procedure: as §2, §3

[16] = molecular target: T12, Histone 2A citrulline-containing peptide 11 (human, also: biotin label); experiment: peptide ELISA, 2 ug/well
T12 peptide: LQLAI[Cit]NDEELN
Procedure: as §2, §3

[17] = molecular target: T13, Histone 2A citrulline-containing peptide 12 (human, also: biotin label); experiment: peptide ELISA, 2 ug/well
T13 peptide: NKLLG[Cit]VTIAQG
Procedure: as §2, §3

[18] = molecular target: T14, Histone 2A citrulline-containing peptide 6 (human, also: biotin label); experiment: peptide ELISA, 2 ug/well
T14 peptide: VHRLL[Cit]KGNYSE
Procedure: as §2, §3

[19] = molecular target: T15, Histone 2A citrulline-containing peptide 4 (human, also: biotin label); experiment: peptide ELISA, 2 ug/well
T15 peptide: QFPVG[Cit]VHRLLR
Procedure: as §2, §3

[20] = molecular target: T10, Histone 2A citrulline-containing …; experiment: peptide ELISA, 2 ug/well
Procedure: as §2, §3

[21] = molecular target: T16, Histone 2A citrulline-containing peptide 10 (human, also: biotin label); experiment: peptide ELISA, 2 ug/well
T16 peptide: TRIIP[Cit]HLQLAI
Procedure: as §2, §3

[22] = molecular target: T17, Histone 2A citrulline-containing peptide 9 (human, also: biotin label); experiment: peptide ELISA, 2 ug/well
T17 peptide: DNKKT[Cit]IIPRHL
Procedure: as §2, §3

[23] = molecular target: T18, Histone 2A citrulline-containing peptide 8 (human, also: biotin label); experiment: peptide ELISA, 2 ug/well
T18 peptide: AGNAA[Cit]DNKKTR
Procedure: as §2, §3

[24] = molecular target: T19, Histone 2A citrulline-containing peptide 3 (human, also: biotin label); experiment: peptide ELISA, 2 ug/well
T19 peptide: KSRSS[Cit]AGLQFP
Procedure: as §2, §3

[25] = molecular target: T20, Histone 2A citrulline-containing peptide 1 (human, also: biotin label); experiment: peptide ELISA, 2 ug/well
T20 construct: also called AAASGXGKQGGK
T20 peptide: AAASG[Cit]GKQGGK
Procedure: as §2, §3

B1: RhmAb2.102 (antibody, human IgG1, lambda)
heavy: not shown
light: QSVLTQPPSMSAAPGQKVTISCSGSSSNIGNNYVSWYQQVPGTAPKLLIYDDNKRPSGIPGRFSGSKSATSATLGITGLQAGDEADYYCGSWDDNLSVVLFGGGTKLTVLGQPKAAPSVTLFPPSSEELQANKATLVCLISDFYPGAVTVAWKADSSPVKAGVETTTPSKQSNNKYAASSYLSLTPEQWKSHRSYSCQVTHEGSTVEKTVAPTECS
notes: Human IgG1 lambda; also called Rhm2.102
Binder B1 has an OD [1] of 0.178 OD, an OD [2] of 0.161 OD and an OD [3] of 0.229 OD. The OD [4] was 3.48 OD, the OD [5] was 0.428 OD and the OD [6] was 3.42 OD. For the same binder, the OD [7] was 2.44 OD, the OD [8] was 0.247 OD and the OD [9] was 0.825 OD. It also gave an OD [10] of 3.41 OD, an OD [11] of 0.31 OD and an OD [12] of 1.31 OD. It also gave an OD [13] of 0.057 OD, an OD [14] of 3.21 OD and an OD [15] of 0.111 OD. It also gave an OD [16] of 0.067 OD, an OD [17] of 0.067 OD and an OD [18] of 0.752 OD. For the same binder, the OD [19] was 1.3 OD, the OD [20] was 0.059 OD and the OD [21] was 0.07 OD. The OD [22] was 0.063 OD, the OD [23] was 0.06 OD and the OD [24] was 0.286 OD. The OD [25] was 3.05 OD.
